In PMC11497264, “SARS‐CoV‐2 Spike Protein‐Derived Cyclic Peptides as Modulators of Spike Interaction with GRP78” (Chembiochem, 2024) one finds IC50 and Kd data, which are given here for two molecules.

One may read the IC50 as the concentration that inhibits the measured activity by half. The low end stands for inhibition by little substance, the high end for a need for much substance. For orientation: Kd means a measure of binding affinity in units of concentration.

Bridge positions count the residues as written; N and C are the ends.

The target in the test is T1, human glucose-regulated protein GRP78 (human, UniProt P11021 19-654).
T1 construct: also called heat shock protein A5; HSPA5; source: Escherichia coli, recombinant; bought: Abcam
T1 sequence (P11021 19-654): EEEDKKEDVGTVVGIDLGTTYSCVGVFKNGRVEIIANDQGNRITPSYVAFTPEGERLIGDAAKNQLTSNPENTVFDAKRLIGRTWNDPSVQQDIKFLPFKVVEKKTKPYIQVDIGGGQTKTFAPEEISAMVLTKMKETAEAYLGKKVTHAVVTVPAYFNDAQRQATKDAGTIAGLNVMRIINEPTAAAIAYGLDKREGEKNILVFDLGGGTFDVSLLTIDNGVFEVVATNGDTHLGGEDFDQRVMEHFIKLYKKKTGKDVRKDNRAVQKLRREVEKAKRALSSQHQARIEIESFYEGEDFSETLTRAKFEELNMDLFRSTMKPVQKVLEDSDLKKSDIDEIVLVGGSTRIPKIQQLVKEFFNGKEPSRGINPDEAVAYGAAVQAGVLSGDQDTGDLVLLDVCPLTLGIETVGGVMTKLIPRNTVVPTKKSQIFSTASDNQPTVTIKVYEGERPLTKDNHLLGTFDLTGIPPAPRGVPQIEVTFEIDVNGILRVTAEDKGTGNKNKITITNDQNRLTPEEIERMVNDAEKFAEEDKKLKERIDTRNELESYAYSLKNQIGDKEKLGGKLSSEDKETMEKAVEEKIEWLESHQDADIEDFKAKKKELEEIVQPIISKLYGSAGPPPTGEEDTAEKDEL
Description: SPR. The note with it: both partners purified.

B1: LCP W, loop-derived cyclic peptide based on spike residues 480-488 of the Wuhan strain (peptide)
peptide: H-CNGVEGFNC-NH2
modifications: disulfide 1-9
SMILES: CC(C)[C@@H]1NC(=O)CNC(=O)[C@H](CC(N)=O)NC(=O)[C@@H](N)CSSC[C@@H](C(N)=O)NC(=O)[C@H](CC(N)=O)NC(=O)[C@H](Cc2ccccc2)NC(=O)CNC(=O)[C@H](CCC(=O)O)NC1=O
notes: also called Wuhan loop peptide; Wuhan peptide
B1 yielded an IC50 of 763 nM.

B2: LCP O, loop-derived cyclic peptide based on spike residues 480-488 of the Omicron strain (peptide)
peptide: H-CNGVAGFNC-NH2
modifications: disulfide 1-9
SMILES: CC(C)[C@@H]1NC(=O)CNC(=O)[C@H](CC(N)=O)NC(=O)[C@@H](N)CSSC[C@@H](C(N)=O)NC(=O)[C@H](CC(N)=O)NC(=O)[C@H](Cc2ccccc2)NC(=O)CNC(=O)[C@H](C)NC1=O
notes: also called Omicron loop peptide; Omicron peptide
B2 registered an IC50 of 693 nM and a Kd of 2000 nM.
